Where two headings read alike, the source gives them in different places.
Assays:
Human serum albumin [1] = molecular target: Human serum albumin (human)
[2] = molecular target: T1, Cynomolgus monkey serum albumin (cynomolgus monkey); test: BLI, pH 5.5
T1 chain: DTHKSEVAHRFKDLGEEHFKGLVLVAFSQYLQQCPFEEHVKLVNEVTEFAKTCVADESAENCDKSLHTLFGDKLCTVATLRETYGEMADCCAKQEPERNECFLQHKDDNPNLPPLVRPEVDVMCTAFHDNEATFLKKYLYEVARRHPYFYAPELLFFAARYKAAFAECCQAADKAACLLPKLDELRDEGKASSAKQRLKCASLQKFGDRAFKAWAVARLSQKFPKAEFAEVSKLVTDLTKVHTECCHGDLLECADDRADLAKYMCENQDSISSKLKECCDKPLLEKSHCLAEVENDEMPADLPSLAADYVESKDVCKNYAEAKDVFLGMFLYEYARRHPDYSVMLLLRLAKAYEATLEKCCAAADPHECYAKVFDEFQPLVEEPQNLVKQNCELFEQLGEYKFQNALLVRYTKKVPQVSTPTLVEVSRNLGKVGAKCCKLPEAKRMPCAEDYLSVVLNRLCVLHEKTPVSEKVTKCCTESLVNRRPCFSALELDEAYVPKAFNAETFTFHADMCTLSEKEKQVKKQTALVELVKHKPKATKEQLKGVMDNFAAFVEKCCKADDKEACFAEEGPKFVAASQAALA

[3] = molecular target: T1, Cynomolgus monkey serum albumin; test: BLI, pH 7.4
Human serum albumin [4] = molecular target: Human serum albumin (human); test: BLI, pH 5.5
Human serum albumin [5] = molecular target: Human serum albumin (human); test: BLI, pH 7.4

B1: G148-ABD-wt (peptide)
chain: LAEAKVLANRELDKYGVSDYYKNLINNAKTVEGVKALIDEILAALP
B1 showed a Kd (Human serum albumin [1]) of about 1.2 nM.

B2: AWT-P367 (antibody, V domains shown)
VH: QVQLVESGGGLVQPGGSLRLSCAASGSTWSINTLAWYRQAPGKQRDLVARISSGGSTHYADSVKGRFTVSRDNAENTLVLQMNSLKPEDTAVYYCYAQSTWYPPSWGQGTQVTVSS
Work on B2 yielded a Kd [2] of 20.5 nM, a Kd [3] of 18.9 nM and a Kd (Human serum albumin [4]) of 9.6 nM. It also gave a Kd (Human serum albumin [5]) of 29.6 nM.

B3: AWT-P610 (designed binder)
chain: QVQLVESGGGVVQPGGSLRLSCAASGFAFRGFGMSWVRQAPGKGLEWVSSINNGGSDTYYADSVKGRFTISRDNSKNTLYLQMNSLRAEDTAVYYCAIGGPGASPSGQGTQVTVSS
B3 showed a Kd [2] of 47.1 nM, a Kd [3] of 49.6 nM and a Kd (Human serum albumin [4]) of 39.8 nM. For the same binder, the Kd (Human serum albumin [5]) was 43 nM.
